Measured values from patent US20110110959A1 (BIOSCEPTRE AUST, published 2011).
Each block holds one molecule with its values, some of them ahead of it.

Legend:
HLA (human) [1] = assay: FACS, human lymphocytes
HLA (human) [2] = assay: FACS, MCF-7 breast tumour cell line
U140 [3] = assay: ELISA, coated antigen, supernatant, duplicate 1
U80 [4] = assay: ELISA, coated antigen, supernatant, duplicate 1
U140 [5] = assay: ELISA, coated antigen, supernatant, duplicate 2
U80 [6] = assay: ELISA, coated antigen, supernatant, duplicate 2
[7] = target: T1, composite peptide GHNYTTRNILPGAGAKYYKENNVEK (BSA carrier protein attached for coating of ELISA plates); assay: ELISA, coated antigen, supernatant, duplicate 1
T1 construct: also called EP200/300; 200/300-peptide
T1 peptide: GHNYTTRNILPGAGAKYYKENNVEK

[8] = target: T2, 200 (a peptide having the sequence of the E200 region); assay: ELISA, coated antigen, supernatant, duplicate 1
T2 construct: also called E200 peptide
T2 peptide: GHNYTTRNILPGLNITC

[9] = target: T3, 300 (a peptide having the sequence of the E300 region); assay: ELISA, coated antigen, supernatant, duplicate 1
T3 construct: also called E300 peptide
T3 peptide: KYYKENNVEKRTLIKVF

[10] = target: T1, composite peptide …; assay: ELISA, coated antigen, supernatant, duplicate 2
[11] = target: T2, 200 (a peptide having the sequence of …); assay: ELISA, coated antigen, supernatant, duplicate 2
[12] = target: T3, 300 (a peptide having the sequence of …); assay: ELISA, coated antigen, supernatant, duplicate 2

Mean Fluorescence Intensity (MFI) (HLA (human) [1]): 3900 MFI
Percent Cells Positive (HLA (human) [1]): 100%
Mean Fluorescence Intensity (MFI) (HLA (human) [2]): 1670 MFI
Percent Cells Positive (HLA (human) [2]): 87%
Molecule: HLA (W6/32) Positive Control (antibody)

ELISA absorbance (405 nm, reference 490 nm) (U140 [3]): 0.17 OD
ELISA absorbance (405 nm, reference 490 nm) (U80 [4]): 0.181 OD
ELISA absorbance (405 nm, reference 490 nm) (U140 [5]): 0.508 OD
ELISA absorbance (405 nm, reference 490 nm) (U80 [6]): 0.154 OD
ELISA absorbance (405 nm, reference 490 nm) [7]: 3.62 OD
ELISA absorbance (405 nm, reference 490 nm) [8]: 0.138 OD
ELISA absorbance (405 nm, reference 490 nm) [9]: 0.144 OD
ELISA absorbance (405 nm, reference 490 nm) [10]: 3.6 OD
ELISA absorbance (405 nm, reference 490 nm) [11]: 0.194 OD
ELISA absorbance (405 nm, reference 490 nm) [12]: 0.186 OD
B1: 2A11 (antibody, V domains shown)
VH: QVQLQESGGGSVQAGGSLRLSCTASGFTLDDSDLGWYRQAPGNECELVSIIRRDGSPYHTYYPDSVKGRFTISQDNAKNTLYLQMNSLKPEDTAVYYCAADPSRYYSDYGAPGCGFNYWGQGTQVTVSS
